B1: VH 115 (VHH)
VHH: EVQLVESGGGLVQPGGSLRLSCKGSGFTFGDYAIGWVRQAPGQRLEWIGWINTNSGSPKYAQGFTGRFTISRDNSKNTLYLQMNSLRAEDTAVYYCATDVVVPWGQGSQVTVSS
notes: Human single VH domain antibody (not a camelid VHH); source: E.coli TopF expression system, purified on Ni-NTA columns
B2: VH-Fc 115 (Fc fusion, human)
VH: B1 VHH
notes: VH cloned into the pcDNA-IgG1 Fc vector; source: Expi293, transiently transfected, purified by protein A resin; not shown: Fc (human IgG1), C-terminal, kept
B3: VH 3 (VHH)
VHH: EVQLVESGGGLVQPGGSLRLSCAASGFTFSRYWMSWVRQAPGKALEWIGEINHSGSTNYNPSLKSLVTISRDNSKNTLYLQMNSLRAEDTATYYCARSLVPALSYYYYYGMDVWGQGTTVTVSS
notes: Human single VH domain antibody (not a camelid VHH); Monomeric by SEC; also called clone 3; anti-uPAR VH 3; source: E.coli TopF expression system, purified on Ni-NTA columns
B4: VH-Fc 3 (Fc fusion, human)
VH: B3 VHH
notes: VH 3 domain, as m1; VH cloned into the pcDNA-IgG1 Fc vector; source: Expi293, transiently transfected, purified by protein A resin; not shown: Fc (human IgG1), C-terminal, kept

T1 sequence (Q03405 23-305): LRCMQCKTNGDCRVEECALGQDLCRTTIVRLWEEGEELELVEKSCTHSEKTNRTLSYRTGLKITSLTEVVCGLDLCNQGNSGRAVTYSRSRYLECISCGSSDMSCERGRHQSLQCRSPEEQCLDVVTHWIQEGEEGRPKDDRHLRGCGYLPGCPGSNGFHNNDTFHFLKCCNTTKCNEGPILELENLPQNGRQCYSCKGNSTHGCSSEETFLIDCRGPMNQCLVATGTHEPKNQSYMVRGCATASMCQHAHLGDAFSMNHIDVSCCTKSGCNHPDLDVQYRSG

The first data set deals with the molecule itself. Briefly: SEC; Superdex 200 Increase 10/300 GL; 200 μg of filtered antibody; DPBS, 0.5 mL/min; size from molecular weight calibration curves.
Details: not given
Regarding B1, the “stoichiometry N” value is 2.

Consider B2, for which the “stoichiometry N” value amounted to 2.

The next data set concerns the target T1, recombinant uPAR-Biotin (human, UniProt Q03405 23-305, biotin).
T1 construct: May be one of the bought proteins (uPAR-His or uPAR-Fc) after biotinylation
Briefly: BLI; BLItz; streptavidin biosensors coated with 16.7 μg/mL recombinant uPAR-Biotin; 400nM, 200nM and 100nM of VH, VH-Fc, DbTE, association 2 min; dissociation in DPBS 4 min. As to conditions: both partners purified.
B3: the Kd came out at 17.1 nM, the koff stood at 0.0014 s⁻¹ and the kon turned out to be 79000 M⁻¹ s⁻¹.

On to B4, for which the Kd worked out at 9.6 nM, the koff amounted to 0.0012 s⁻¹ and the kon worked out at 120000 M⁻¹ s⁻¹.

On to B1, for which the Kd stood at 1.7 nM, the koff amounted to 3.6e-05 s⁻¹ and the kon worked out at 21000 M⁻¹ s⁻¹.

With B2, the Kd was 71.1 nM, the koff was 0.0024 s⁻¹ and the kon worked out at 33000 M⁻¹ s⁻¹.

Another data set deals with T2, Human uPAR-His recombinant protein (human, UniProt Q03405 23-305).
T2 construct: also called recombinant human uPAR; CD87; source: bought: R&D system
T2 sequence (Q03405 23-305): as above
Briefly: ELISA; uPAR-His coated at 50 ng/well at 4°C overnight; 3-fold serially diluted binders 1 hour at 37°C; VH detected by anti-FLAG M2-HRP, VH-Fc or DbTE by HRP goat anti-human IgG1 Fc. As to conditions: both partners purified.
Consider B3, for which the EC50 turned out to be 12.1 ± 0.8 nM.

In the case of B4, the EC50 worked out at 64.3 ± 2.3 nM.

On to B1, for which the EC50 stood at 34.2 ± 3.5 nM.

As to B2, the EC50 came to 6.6 ± 0.2 nM.

The values above are taken from PMC10593477 (Frontiers in Oncology, 2023).
